# From the supplement of paper PMC10724198
# ± gives the standard deviation of the averaged measurements.
# Test system: Saccharomyces cerevisiae
# Assay: protein stability index of tFT-peptide fusion (C-terminal peptide) (PSI (0-1 scale)); higher = more stable (slower turnover)
# Conditions: genetic background: wild type; temperature: 30 C
# 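Further: PSI is a weighted mean of sequencing reads over stability bins, variants kept only with over 10 reads, mCherry proximal and sfGFP distal, peptide attached via GGGS linker.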
row,Sequence,protein stability index
1,KSRTRNNVSRVG,0.6703 ± 0.0062
2,GGDDKREPGGAR,0.6603 ± 0.0025
3,PHDRSPPHGPKL,0.742 ± 0.1
4,RSIFLSRFVIGC,0.682 ± 0.018
5,PPSPPPPSRPIH,0.776 ± 0.021
6,GGGGGCGVAGGV,0.71 ± 0.026
7,FRYRLACRPIYQ,0.616 ± 0.038
8,YCGCLGYATGRV,0.671 ± 0.017
9,VRQSCGSRGFFF,0.729 ± 0.023
10,PDLEMQMTRTRG,0.70081 ± 0.00044
11,GFKIEVIQASGS,0.683 ± 0.025
12,CCARRWLNFEYW,0.72 ± 0.032
13,RGYVSLSEGVAA,0.676 ± 0.058
14,RKLAEVNCTVKV,0.664 ± 0.036
15,PPHSHRSRHPPP,0.688 ± 0.061
16,TPASAGLACILL,0.672 ± 0.013
17,SREEWQSSKLRD,0.784 ± 0.089
18,HSRKVHGLWALR,0.695 ± 0.0081
19,PTGLTNPPPCPQ,0.716 ± 0.11
20,RCSPPVFDTGES,0.652 ± 0.017
21,FIPPPLALPFYS,0.674 ± 0.056
22,DAWRAGESTEGG,0.71 ± 0.027
23,GFGFWRNLFYWS,0.657 ± 0.048
24,TGKIRWIPAIRS,0.64 ± 0.039
25,FEFGGGIRGSLG,0.679 ± 0.048
26,PFLRPPSPPSSP,0.66 ± 0.013

row,Sequence,protein stability index
1,ALASLPPQPHSP,0.665 ± 0.047
2,FLSFIALLPFTS,0.6748 ± 0.0021
3,VARPMHFIRYGK,0.716 ± 0.018
4,IVDYSRYVIGLE,0.663 ± 0.0095
5,MRRNGRNILGVA,0.729 ± 0.054
6,RLSSCSAPFPLL,0.7194 ± 0.0068
7,TPSYSPPSRHDP,0.634 ± 0.093
8,CVVAISGLSHFL,0.623 ± 0.015
9,GMIGLAEVGIKC,0.573 ± 0.0067
10,FGNVLISMRNRL,0.834 ± 0.11
11,PPAPAPPAPPPL,0.649 ± 0.027
12,RTPSHPLPHPHS,0.677 ± 0.12
13,DCSCIYGHRVVV,0.6466 ± 0.0038
14,APPRPPPRPHPP,0.571 ± 0.063
15,ILFLRFLHSVFS,0.5364 ± 0.0038
16,IVRNDRSGPWGD,0.756 ± 0.12
17,LSEDGGHRWHRI,0.796 ± 0.087
18,VGCSGVYIWGNL,0.707 ± 0.015
19,SYSGLLEALTTL,0.737 ± 0.032
20,LCVGQVGLWVGR,0.703 ± 0.042
21,PPRCHPPPPFPP,0.6466 ± 0.0047
22,RPPFPPLPLPPP,0.674 ± 0.088
23,CGWGVMDAVGSR,0.685 ± 0.019
24,FLCPGELSYFCV,0.666 ± 0.03
25,GATLWGMAWGAR,0.682 ± 0.012
26,LRNWIGGTLGGG,0.7 ± 0.0095

row,Sequence,protein stability index
1,PWGGLGTGWGRR,0.75 ± 0.035
2,AFMVFCRSLLAP,0.684 ± 0.014
3,GLLPTPPASLLY,0.6888 ± 0.00085
4,PDLPHYHPPPPL,0.727 ± 0.011
5,VGKCGSGCLHST,0.6313 ± 0.004
6,AFMPGLLGDTYE,0.662 ± 0.022
7,SLELWPGAKGAP,0.702 ± 0.1
8,PPPPPPPTPPPP,0.673 ± 0.014
9,LGSNLVCFLCVS,0.566 ± 0.053
10,CRTFSALVDRFT,0.687 ± 0.046
11,LAPLRGHDHSRA,0.6638 ± 0.0055
12,KGGCPTASARVL,0.5735 ± 0.0011
13,ASLSKLTLKVTV,0.586 ± 0.057
14,VALLKCTGTAQI,0.61 ± 0.033
15,DDGRVSLGEQSG,0.673 ± 0.036
16,IYFRILKKRSKT,0.639 ± 0.02
17,AERSVRGTTPGG,0.632 ± 0.051
18,AAPPPRRPCPPL,0.678 ± 0.038
19,APVGLTFNSSLL,0.7107 ± 0.0032
20,GGGGGGWGGGVG,0.665 ± 0.021
21,VTMQEKTCQLEA,0.705 ± 0.1
22,LGFQSRTTRCCG,0.6685 ± 0.0014
23,PTRERPSDQPYP,0.701 ± 0.04
24,GGGGGNAGSHLG,0.673 ± 0.018
25,FTQDYRRKTMSH,0.604 ± 0.064
26,EGRSVWVVGRAV,0.652 ± 0.045

row,Sequence,protein stability index
1,KHPMRLPHTRRA,0.706 ± 0.045
2,HDHEARHSDSLN,0.658 ± 0.026
3,PRPPLPLFPSSL,0.723 ± 0.048
4,KKSQKSKNKTHN,0.571 ± 0.0066
5,LPFLPPPPPLRP,0.694 ± 0.11
6,GVWEGLQLGLIS,0.7826 ± 0.0032
7,KLGWSVTRAEVN,0.687 ± 0.017
8,GGGVGGWGTWVV,0.715 ± 0.1
9,TYQVVPRDAPYV,0.672 ± 0.025
10,TEVSAPAPPCLW,0.6371 ± 0.0058
11,SFLVPLTAHISP,0.673 ± 0.083
12,VITFPAFLPISN,0.702 ± 0.017
13,GGVGGGGREWRR,0.683 ± 0.033
14,SHRLPPPPPPPS,0.758 ± 0.14
15,EHMEYKSMVSCA,0.51 ± 0.059
16,GPSPFCTIRLKN,0.655 ± 0.018
17,GEAGGEESEEGY,0.676 ± 0.042
18,YSVSAALPREFR,0.773 ± 0.062
19,GSDWGYDSGLKG,0.765 ± 0.044
20,CGLRGAGVLCWG,0.483 ± 0.051
21,VGDIGLEVKLFF,0.72 ± 0.0076
22,PPPPTALPHPDL,0.604 ± 0.012
23,MWVRKPNGNGSF,0.6877 ± 0.0055
24,AWGGGEWGGCGR,0.772 ± 0.027
25,RLPCPLRSRALS,0.626 ± 0.03
26,AGAATGAGGLQG,0.672 ± 0.037

row,Sequence,protein stability index
1,PFSTWLSSPSLP,0.774 ± 0.07
2,RRWWDHGCSGAG,0.672 ± 0.061
3,TPRASLSATSRS,0.719 ± 0.016
4,GRSRGEGVRRNH,0.583 ± 0.042
5,PAPPPQSPAPYR,0.704 ± 0.049
6,SSCRKFLFAIRR,0.685 ± 0.02
7,LLPRQSRYNAHF,0.669 ± 0.075
8,RIGRHLATSRRV,0.679 ± 0.0089
9,YPGPFTGCSKIQ,0.676 ± 0.069
10,LKRMQKYIDMSS,0.714 ± 0.11
11,SPSSFLLSPPIP,0.764 ± 0.071
12,PVSPPLPTPPPP,0.616 ± 0.056
13,RLLPCATPHPDL,0.647 ± 0.015
14,SSSPSPRPPRPP,0.679 ± 0.0097
15,LLPPQPYTPLHL,0.679 ± 0.13
16,NRGPPNMRQITP,0.712 ± 0.085
17,MEDSRSDSSGSP,0.6534 ± 0.00074
18,ASCLNYSSNRRP,0.617 ± 0.064
19,KKKKREKSKHRK,0.714 ± 0.022
20,FPMHFRVRCRPV,0.62 ± 0.045
21,SQVRYIANRKDG,0.635 ± 0.091
22,VSTRSTVVVSSL,0.662 ± 0.02
23,SGGQDSFVLRLG,0.6687 ± 0.0015
24,LLHQSRSQVSFY,0.717 ± 0.093
25,AVSESSRRTQFF,0.7039 ± 0.0025
26,GLLCWVGRWGVF,0.596 ± 0.05

row,Sequence,protein stability index
1,LFPIYFVCNYSA,0.508 ± 0.0075
2,CRRSCPRLTVTR,0.746 ± 0.015
3,CRGILVGVWRCG,0.5856 ± 0.0014
4,LRCCGGCGVCAL,0.686 ± 0.03
5,GDSPLQAPPSLL,0.708 ± 0.1
6,SSPSPPSPPLPP,0.735 ± 0.0095
7,LLSRLVVRGLVS,0.629 ± 0.087
8,QYVYIPGLSNLC,0.632 ± 0.019
9,NLITKWTCMRLF,0.511 ± 0.014
10,LPSRLPPQPSPA,0.687 ± 0.071
11,PLLPFRYTRSGT,0.68 ± 0.07
12,GEVGRGGEWGLD,0.711 ± 0.077
13,PPPPHPPSPSLP,0.664 ± 0.1
14,RDLGPSAISMTV,0.628 ± 0.043
15,ERVGLISSRRGC,0.696 ± 0.014
16,LSLSVNLPLFPT,0.648 ± 0.067
17,KKKKGKKRRTRK,0.72 ± 0.041
18,LCYLPLTLPPVL,0.582 ± 0.036
19,GLLYHIRVRSRG,0.66 ± 0.006
20,FSVVGVFNIYGM,0.6214 ± 0.0023
21,PPRPPPPPPAPL,0.688 ± 0.019
22,PPPPPSPPPPPH,0.704 ± 0.0074
23,FHGGRGLLLGMN,0.649 ± 0.077
24,EGRAAETFVCAI,0.6429 ± 0.0055
25,PLPSPPAPNSPQ,0.6793 ± 0.0053
26,PSRTSPLSHIPF,0.676 ± 0.023

row,Sequence,protein stability index
1,AAFHSSSAFFFN,0.718 ± 0.019
2,LPPSSSPSYIFS,0.744 ± 0.047
3,NVLIISEQNHEP,0.748 ± 0.047
4,YPLRVSRCWSPP,0.773 ± 0.1
5,SPPLLHLSNSRH,0.654 ± 0.059
6,SSPPFPPSPPLP,0.695 ± 0.012
7,VWSGGDGGGAVV,0.733 ± 0.051
8,IYSTRWRRGRVE,0.699 ± 0.044
9,NLCRFHFRNRFS,0.565 ± 0.011
10,PTVFMNIQKQNI,0.678 ± 0.042
11,IGGPIIYTGRLH,0.682 ± 0.19
12,GRVFDTNGIGLG,0.694 ± 0.074
13,AKFERRTIGCSA,0.605 ± 0.0042
14,CWGGGGLWLLEV,0.515 ± 0.012
15,LFRPSPPRPLPP,0.651 ± 0.0071
16,PHRLLTQITTGT,0.746 ± 0.12
17,CQFPSLPLPSFM,0.66 ± 0.032
18,RNYIVLYYDEGD,0.673 ± 0.074
19,IKDESNLKKHKN,0.715 ± 0.041
20,PLIYFLASNSRF,0.713 ± 0.069
21,QEHLSFVATARY,0.73 ± 0.1
22,PLHPQPAATPRS,0.713 ± 0.023
23,AEARTRYVPRPR,0.686 ± 0.02
24,LSTPPDLNPLIF,0.654 ± 0.034
25,GGGLSRVEGFGP,0.6681 ± 0.0038
26,ACLGVSTPSLGI,0.672 ± 0.027

row,Sequence,protein stability index
1,LPLPPASRSAPP,0.589 ± 0.028
2,PLSPPPAPLPSS,0.747 ± 0.071
3,SGSRRTSRVGSR,0.721 ± 0.0087
4,LKNGDINYARFG,0.679 ± 0.083
5,SHVPLAKLSLFP,0.756 ± 0.024
6,VVPDSGESSASG,0.654 ± 0.098
7,RSGSRNYPGFPR,0.764 ± 0.027
8,SRHIFAPFGLFG,0.726 ± 0.056
9,HATFSLFLASCY,0.625 ± 0.011
10,GAARGWLPGAGW,0.727 ± 0.04
11,PPPRLAPTLLPA,0.5999 ± 0.0046
12,WGYWGGVMGLEE,0.738 ± 0.043
13,LFLGLLLMNDWL,0.774 ± 0.096
14,CLIGHFFSVIFY,0.5239 ± 0.0051
15,GPGTAMCLWWWG,0.692 ± 0.0085
16,PPRPPPPRPPPL,0.742 ± 0.028
17,GGGAGERMRDGR,0.67 ± 0.026
18,SYPPLLPQLPPP,0.678 ± 0.062
19,PTRRPDLFYYSS,0.74 ± 0.017
20,PIPAPFFLAPPL,0.731 ± 0.06
